Data on three molecules can be found in PMC11082093, “A 3′‐pre‐tRNA‐derived small RNA tRF‐1‐Ser regulated by 25(OH)D promotes proliferation and stemness by inhibiting the function of MBNL1 in breast cancer”.

Series [1] has as its target T1, MBNL1 recombinant (UniProt Q9NR56 1-388).
T1 sequence: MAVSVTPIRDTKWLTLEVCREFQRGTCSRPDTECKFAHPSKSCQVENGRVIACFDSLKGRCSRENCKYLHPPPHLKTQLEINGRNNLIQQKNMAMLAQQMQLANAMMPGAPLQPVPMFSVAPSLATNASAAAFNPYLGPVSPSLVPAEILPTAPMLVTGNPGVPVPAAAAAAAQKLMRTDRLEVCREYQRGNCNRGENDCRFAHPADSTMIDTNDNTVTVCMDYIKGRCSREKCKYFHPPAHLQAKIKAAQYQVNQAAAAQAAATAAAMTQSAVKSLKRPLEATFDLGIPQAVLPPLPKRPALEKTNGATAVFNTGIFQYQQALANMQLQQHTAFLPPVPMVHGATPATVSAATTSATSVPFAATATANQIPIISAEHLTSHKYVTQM
Nature of the series: EMSA; EMSA: REMSA Binding Buffer (Beyotime), 4 °C, 10 min; 6% TBE PAGE in ice box; salt and pH not given. The note with it: protein: commercial; label: biotin.

Series [2] deals with T1, MBNL1 recombinant. In words: competition; excess unlabelled vs biotin-labelled tRF-1-Ser; EMSA; EMSA: REMSA Binding Buffer (Beyotime), 4 °C, 10 min; 6% TBE PAGE in ice box; salt and pH not given. The note with it: protein: commercial.

As to GAAGCGGGCAACCUUAUUUU (ssRNA) [tRF-1-Ser-UGCU-mut], in the series with MBNL1 recombinant [1], the binding result is listed as “no binding”. For the molecule GAAGCGGGUGCUCUUAUUUU (ssRNA) [tRF-1-Ser unlabelled (mimic)], the binding result in the series with MBNL1 recombinant [2] is reported as “binds”. Turning to GAAGCGGGUGCUCUUAUUUU (ssRNA) [tRF-1-Ser], the binding result in the series with MBNL1 recombinant [1] is on record as “binds”.
